Where two headings read alike, the source gives them in different places. Each block holds one binder with its values, some of them ahead of it. Numbered stars: 1 amine (or outer) side, 2 acyl side, 3 side chain; on linkers, the order of the positions; unused ones are H or OH. Bridge positions count the residues as written; N and C are the ends. Square brackets hold non-standard residues; d marks the D form. Side chains are listed from the residue outwards. Ends that are not written are not given here. * marks the point of attachment. C20 diacid = O=C(O)CCCCCCCCCCCCCCCCCCC(=O)*; γGlu = O=C(O)[C@H](CCC(=O)[*:2])N[*:1]
Key:
[1] = biological target: T1, human calcitonin receptor (human, UniProt P30988 25-474); assay: cell-based or functional assay
T1 sequence (looked up): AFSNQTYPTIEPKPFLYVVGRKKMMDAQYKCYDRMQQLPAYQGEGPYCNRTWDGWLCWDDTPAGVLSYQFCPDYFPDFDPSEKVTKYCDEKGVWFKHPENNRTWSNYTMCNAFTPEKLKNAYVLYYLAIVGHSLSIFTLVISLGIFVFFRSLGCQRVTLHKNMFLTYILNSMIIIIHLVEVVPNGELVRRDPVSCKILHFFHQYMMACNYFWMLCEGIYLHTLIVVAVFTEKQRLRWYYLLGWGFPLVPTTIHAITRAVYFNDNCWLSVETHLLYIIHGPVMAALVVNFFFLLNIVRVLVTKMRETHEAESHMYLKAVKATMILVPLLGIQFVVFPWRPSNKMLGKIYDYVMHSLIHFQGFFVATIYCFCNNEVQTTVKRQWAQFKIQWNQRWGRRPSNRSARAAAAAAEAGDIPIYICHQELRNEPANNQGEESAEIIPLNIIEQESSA

[2] = biological target: T2, human amylin 3(a) receptor (human calcitonin receptor co-expressed with RAMP-3) (human, UniProt P30988 25-474; O60896 24-148, limits assumed); assay: cell-based or functional assay
T2 sequence (looked up) 1: T1 sequence (looked up)
T2 sequence (looked up) 2: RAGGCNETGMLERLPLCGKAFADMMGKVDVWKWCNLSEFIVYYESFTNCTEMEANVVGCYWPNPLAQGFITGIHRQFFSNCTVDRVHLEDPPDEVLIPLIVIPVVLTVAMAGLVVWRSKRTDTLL

[3] = biological target: T2, human amylin 3(a) receptor (human …); assay: SPA competition binding (Assay V): displacement of 125I-rat amylin from membranes of BHK cells with human calcitonin receptor + RAMP-3
Procedure: The binding assay was performed using scintillation proximity assay (SPA) beads (RPNQ0001) from PerkinElmer and cell membranes from the Amylin 3(a)/CRE-luc cells (as described in Assay (II)) were used. Membranes were prepared in the following way; the cells were rinsed with PBS and incubated with Versene for approximately 5 min before harvesting. The cells were flushed with PBS and the cell-suspension was centrifuged for 5 min at 1000 rpm. Cells were homogenized (ultrathurrax) in a buffer containing 20 mM Na-HEPES and 10 mM EDTA (pH 7.4) and centrifuged at 20.000 rpm for 15 min. The resulting pellet was resuspended, homogenized and centrifuged (20.000 rpm, 15 min) in a buffer containing 20 mM Na-HEPES and 0.1 mM EDTA (pH 7.4, buffer 2). The resulting pellet was resuspended in buffer 2 and protein concentration was measured (BCA protein Assay, Pierce). The homogenate was kept cold during the whole procedure. The membranes were kept at −80° C. until use. The assay was performed in a 384 well Optiplate (PerkinElmer) in a total volume of 40 ul. Membranes were mixed with SPA beads. Final concentration of membranes 35 ng/μL final and SPA beads was 0.05 mg/well. Test-compounds were dissolved in DMSO and further diluted in assay buffer (50 mM Hepes, pH 7.4, 1 mM CaCl2, 5 mM MgCl₂, 0.1% OA and 0.02% Tween20). […] The final mixture was incubated with shaking at 400 rpm for 120 min at 25° C. prior to centrifugation (1500 rpm, 10 min). Samples were analyzed on TopCounter™ (Packard). The IC₅₀ was calculated using (one site binding competition analysis) GraphPad Prism5 as a measure of receptor affinity.

[4] = biological target: T3, human calcitonin receptor (human, UniProt P30988 25-474); assay: cell-based or functional assay; remark: listed apart in the source
T3 sequence (looked up): T1 sequence (looked up)

[5] = biological target: T4, human amylin 3(a) receptor (human calcitonin receptor co-expressed with RAMP-3) (human, UniProt P30988 25-474; O60896 24-148, limits assumed); assay: cell-based or functional assay; remark: listed apart in the source
T4 sequence (looked up) 1: T1 sequence (looked up)
T4 sequence (looked up) 2: T2 sequence (looked up) 2

[6] = biological target: T5, human calcitonin receptor (human, UniProt P30988 25-474); assay: cell-based or functional assay; remark: listed apart in the source
T5 sequence (looked up): T1 sequence (looked up)

rat calcitonin receptor = biological target: T6, rat calcitonin receptor (rat, UniProt P32214 25-516); assay: SPA competition binding, displacement of 125I-calcitonin from membranes of BHK tk'ts 13 cells with rat calcitonin receptor (Assay VIII)
T6 construct: whole, on cells; Used as membranes prepared from transiently transfected BHK tk'ts 13 cells (Assay VIII); also called rCTR; rat calcitonin (a) receptor
T6 sequence (looked up): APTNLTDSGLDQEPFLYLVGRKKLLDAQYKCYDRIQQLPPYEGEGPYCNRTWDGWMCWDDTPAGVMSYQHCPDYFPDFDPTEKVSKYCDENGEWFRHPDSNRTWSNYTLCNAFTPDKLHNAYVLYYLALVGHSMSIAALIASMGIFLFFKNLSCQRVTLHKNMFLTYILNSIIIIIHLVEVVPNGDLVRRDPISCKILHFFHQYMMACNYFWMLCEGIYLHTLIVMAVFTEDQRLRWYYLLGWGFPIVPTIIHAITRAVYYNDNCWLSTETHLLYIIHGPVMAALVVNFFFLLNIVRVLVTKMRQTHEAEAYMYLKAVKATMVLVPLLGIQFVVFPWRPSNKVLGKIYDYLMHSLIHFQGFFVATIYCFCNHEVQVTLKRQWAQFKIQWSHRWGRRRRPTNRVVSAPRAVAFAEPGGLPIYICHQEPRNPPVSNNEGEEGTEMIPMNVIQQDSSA

B1: N^ε1-[(4S)-4-carboxy-4-(19-carboxynonadecanoylamino)butanoyl]-[Asp14,Arg17,Pro21,Pro27,Pro34,Arg35]-h-amylin (peptide)
peptide: K([γGlu-C20 diacid])CNTATCATQRLADFLRHSSPNFGAIPSSTNVGPRTY-NH2
modifications: disulfide 2-7; N-terminus assumed
SMILES: CC[C@H](C)[C@H](NC(=O)[C@H](C)NC(=O)CNC(=O)[C@H](Cc1ccccc1)NC(=O)[C@H](CC(N)=O)NC(=O)[C@@H]1CCCN1C(=O)[C@H](CO)NC(=O)[C@H](CO)NC(=O)[C@H](Cc1c[nH]cn1)NC(=O)[C@H](CCCNC(=N)N)NC(=O)[C@H](CC(C)C)NC(=O)[C@H](Cc1ccccc1)NC(=O)[C@H](CC(=O)O)NC(=O)[C@H](C)NC(=O)[C@H](CC(C)C)NC(=O)[C@H](CCCNC(=N)N)NC(=O)[C@H](CCC(N)=O)NC(=O)[C@@H](NC(=O)[C@H](C)NC(=O)[C@@H]1CSSC[C@H](NC(=O)[C@@H](N)CCCCNC(=O)CC[C@H](NC(=O)CCCCCCCCCCCCCCCCCCC(=O)O)C(=O)O)C(=O)N[C@@H](CC(N)=O)C(=O)N[C@@H]([C@@H](C)O)C(=O)N[C@@H](C)C(=O)N[C@@H]([C@@H](C)O)C(=O)N1)[C@@H](C)O)C(=O)N1CCC[C@H]1C(=O)N[C@@H](CO)C(=O)N[C@@H](CO)C(=O)N[C@H](C(=O)N[C@@H](CC(N)=O)C(=O)N[C@H](C(=O)NCC(=O)N1CCC[C@H]1C(=O)N[C@@H](CCCNC(=N)N)C(=O)N[C@H](C(=O)N[C@@H](Cc1ccc(O)cc1)C(N)=O)[C@@H](C)O)C(C)C)[C@@H](C)O
- hCTR funct. EC50 (CRE luciferase reporter, BHK cells) [1]: 3.64 nM
- Ratio hCT/hAmylin funct. (hCTR EC50 over hAmylin-R EC50) [2]: 24.9
- hAmylin-R funct. EC50 (CRE luciferase reporter, BHK cells) [2]: 0.146 nM
- IC50 [3]: 0.281 nM

B3: N^α1-[(4S)-4-carboxy-4-(19-carboxynonadecanoylamino)butanoyl]-[Glu14,Arg17,Pro21,Pro27,His34]-h-amylin (peptide)
peptide: {C20 diacid-γGlu}-KCNTATCATQRLAEFLRHSSPNFGAIPSSTNVGHNTY-NH2
modifications: disulfide 2-7
SMILES: CC[C@H](C)[C@H](NC(=O)[C@H](C)NC(=O)CNC(=O)[C@H](Cc1ccccc1)NC(=O)[C@H](CC(N)=O)NC(=O)[C@@H]1CCCN1C(=O)[C@H](CO)NC(=O)[C@H](CO)NC(=O)[C@H](Cc1c[nH]cn1)NC(=O)[C@H](CCCNC(=N)N)NC(=O)[C@H](CC(C)C)NC(=O)[C@H](Cc1ccccc1)NC(=O)[C@H](CCC(=O)O)NC(=O)[C@H](C)NC(=O)[C@H](CC(C)C)NC(=O)[C@H](CCCNC(=N)N)NC(=O)[C@H](CCC(N)=O)NC(=O)[C@@H](NC(=O)[C@H](C)NC(=O)[C@@H]1CSSC[C@H](NC(=O)[C@H](CCCCN)NC(=O)CC[C@H](NC(=O)CCCCCCCCCCCCCCCCCCC(=O)O)C(=O)O)C(=O)N[C@@H](CC(N)=O)C(=O)N[C@@H]([C@@H](C)O)C(=O)N[C@@H](C)C(=O)N[C@@H]([C@@H](C)O)C(=O)N1)[C@@H](C)O)C(=O)N1CCC[C@H]1C(=O)N[C@@H](CO)C(=O)N[C@@H](CO)C(=O)N[C@H](C(=O)N[C@@H](CC(N)=O)C(=O)N[C@H](C(=O)NCC(=O)N[C@@H](Cc1c[nH]cn1)C(=O)N[C@@H](CC(N)=O)C(=O)N[C@H](C(=O)N[C@@H](Cc1ccc(O)cc1)C(N)=O)[C@@H](C)O)C(C)C)[C@@H](C)O
notes: Synthetic acylated analogue of human amylin; also called compound 17
- hCTR funct. EC50 (CRE luciferase reporter, BHK cells) [4]: 2.35 nM

B4: N^α1-[(4S)-4-carboxy-4-(19-carboxynonadecanoylamino)butanoyl]-[Arg17,Pro21,Pro27,His34]-h-amylin (peptide)
peptide: KCNTATCATQRLANFLRHSSPNFGAIPSSTNVGHNTY
modifications: C20 diacid-gGlu on the alpha amino group of N-terminal Lys1; disulfide bridge Cys2-Cys7 and C-terminal amide as in human amylin
notes: Synthetic acylated analogue of human amylin; also called compound 40
- hCTR funct. EC50 (CRE luciferase reporter, BHK cells) [4]: 2.68 nM

Binder: K([γGlu-γGlu-C20 diacid])CNTATCATQRLAEFLRHSSPNFGAIPSSTNVGPETP-NH2 (disulfide 2-7 (inferred))
- Ratio hCT/hAmylin funct. [5]: 0.8
- hCTR funct. EC50 (pM) [6]: 102 pM

Second part, the binder after the results:

- hCTR funct. EC50 (CRE luciferase reporter, BHK cells) [1]: 100 nM
- hAmylin-R funct. EC50 (CRE luciferase reporter, BHK cells) [2]: 0.383 nM
- IC50 [3]: 0.365 nM
B2: N^ε1-[(4S)-4-carboxy-4-[[(4S)-4-carboxy-4-(19-carboxynonadecanoylamino)butanoyl]amino]butanoyl]-[D-Asp14,Arg17,Pro21,Pro27,Arg35]-h-amylin (peptide)
peptide: K([γGlu-γGlu-C20 diacid])CNTATCATQRLA[dD]FLRHSSPNFGAIPSSTNVGSRTY-NH2
modifications: disulfide 2-7; N-terminus assumed
SMILES: CC[C@H](C)[C@H](NC(=O)[C@H](C)NC(=O)CNC(=O)[C@H](Cc1ccccc1)NC(=O)[C@H](CC(N)=O)NC(=O)[C@@H]1CCCN1C(=O)[C@H](CO)NC(=O)[C@H](CO)NC(=O)[C@H](Cc1c[nH]cn1)NC(=O)[C@H](CCCNC(=N)N)NC(=O)[C@H](CC(C)C)NC(=O)[C@H](Cc1ccccc1)NC(=O)[C@@H](CC(=O)O)NC(=O)[C@H](C)NC(=O)[C@H](CC(C)C)NC(=O)[C@H](CCCNC(=N)N)NC(=O)[C@H](CCC(N)=O)NC(=O)[C@@H](NC(=O)[C@H](C)NC(=O)[C@@H]1CSSC[C@H](NC(=O)[C@@H](N)CCCCNC(=O)CC[C@H](NC(=O)CC[C@H](NC(=O)CCCCCCCCCCCCCCCCCCC(=O)O)C(=O)O)C(=O)O)C(=O)N[C@@H](CC(N)=O)C(=O)N[C@@H]([C@@H](C)O)C(=O)N[C@@H](C)C(=O)N[C@@H]([C@@H](C)O)C(=O)N1)[C@@H](C)O)C(=O)N1CCC[C@H]1C(=O)N[C@@H](CO)C(=O)N[C@@H](CO)C(=O)N[C@H](C(=O)N[C@@H](CC(N)=O)C(=O)N[C@H](C(=O)NCC(=O)N[C@@H](CO)C(=O)N[C@@H](CCCNC(=N)N)C(=O)N[C@H](C(=O)N[C@@H](Cc1ccc(O)cc1)C(N)=O)[C@@H](C)O)C(C)C)[C@@H](C)O

- hCTR funct. EC50 (CRE luciferase reporter, BHK cells) [1]: 7.28 nM
- Ratio hCT/hAmylin funct. (hCTR EC50 over hAmylin-R EC50) [2]: 44.9
- hAmylin-R funct. EC50 (CRE luciferase reporter, BHK cells) [2]: 0.162 nM
- IC50 [3]: 0.453 nM
Binder: K([γGlu-γGlu-C20 diacid])CNTATCATQRLADFLRHSSPNFGAIPSSTNVGPRTY-NH2 (disulfide 2-7, also called compound 130)

- Ratio hCT/hAmylin funct. [5]: 3.9
- hCTR funct. EC50 (pM) [6]: 1120 pM
Binder: K([γGlu-C20 diacid])CNTATCATQRLADFLRHSSPNFGAIPSSTNVGPETY-NH2 (disulfide 2-7 (inferred))

- IC50 (rat calcitonin receptor): 30.9 nM
Binder: KCNTATCATQRLADFLRHSSPNFGAIPSSTNVGSRTY-NH2 (disulfide 2-7 (inferred)) [[Asp14,Arg17,Pro21,Pro27,Arg35]-h-amylin]
